Reference: paper PMC8881453, “Cryo-EM structure of translesion DNA synthesis polymerase ζ with a base pair mismatch” (Nature Communications, 2022)

B2: Pol31, accessory subunit of DNA polymerase ζ (Polζ) (natural protein, Saccharomyces cerevisiae, UniProt P46957 1-487, looked up)
chain: MDALLTKFNEDRSLQDENLSQPRTRVRIVDDNLYNKSNPFQLCYKKRDYGSQYYHIYQYRLKTFRERVLKECDKRWDAGFTLNGQLVLKKDKVLDIQGNQPCWCVGSIYCEMKYKPNVLDEVINDTYGAPDLTKSYTDKEGGSDEIMLEDESGRVLLVGDFIRSTPFITGVVVGILGMEAEAGTFQVLDICYPTPLPQNPFPAPIATCPTRGKIALVSGLNLNNTSPDRLLRLEILREFLMGRINNKIDDISLIGRLLICGNSVDFDIKSVNKDELMISLTEFSKFLHNILPSISVDIMPGTNDPSDKSLPQQPFHKSLFDKSLESYFNGSNKEILNLVTNPYEFSYNGVDVLAVSGKNINDICKYVIPSNDNGESENKVEEGESNDFKDDIEHRLDLMECTMKWQNIAPTAPDTLWCYPYTDKDPFVLDKWPHVYIVANQPYFGTRVVEIGGKNIKIISVPEFSSTGMIILLDLETLEAETVKIDI
notes: Pol31, Saccharomyces cerevisiae, accessory subunit of Polζ, full-length (residues 1-487); source: expressed in yeast from plasmids pBJ1462 and pBJ1524, purified as the Polζ holoenzyme
B3: Pol32, accessory subunit of DNA polymerase ζ (Polζ) (natural protein, Saccharomyces cerevisiae, UniProt P47110 1-350, looked up)
chain: MDQKASYFINEKLFTEVKPVLFTDLIHHLKIGPSMAKKLMFDYYKQTTNAKYNCVVICCYKDQTIKIIHDLSNIPQQDSIIDCFIYAFNPMDSFIPYYDIIDQKDCLTIKNSYELKVSESSKIIERTKTLEEKSKPLVRPTARSKTTPEETTGRKSKSKDMGLRSTALLAKMKKDRDDKETSRQNELRKRKEENLQKINKQNPEREAQMKELNNLFVEDDLDTEEVNGGSKPNSPKETDSNDKDKNNDDLEDLLETTAEDSLMDVPKIQQTKPSETEHSKEPKSEEEPSSFIDEDGYIVTKRPATSTPPRKPSPVVKRALSSSKKQETPSSNKRLKKQGTLESFFKRKAK
notes: Pol32, Saccharomyces cerevisiae, accessory subunit of Polζ, full-length (residues 1-350); The full-length protein was in the sample; also called Pol32N; source: expressed in yeast from plasmids pBJ1462 and pBJ1524, purified as the Polζ holoenzyme

Columns and labels:
[1] = target: T1, Polζ holoenzyme (Rev3-Rev7-Pol31-Pol32) (Saccharomyces cerevisiae, UniProt P14284); test: cryo-EM structure, […] Å; assay type: binding; details: ternary complex with dideoxy-terminated A:C mismatched primer-template DNA, templating G; 1 mM dCTP; CaCl2 (Ca2+ metal B); Rev3 active site, fingers open
T1 construct: full-length subunits, holoenzyme expressed in yeast from plasmids pBJ1462 and pBJ1524; pentameric complex with two Rev7 (Rev7A, Rev7B); with DNA polymerase zeta processivity subunit; DNA polymerase delta small subunit; DNA polymerase delta subunit 3

[2] = target: T2, Rev3, catalytic subunit of DNA polymerase ζ (Polζ) (Saccharomyces cerevisiae, UniProt P14284 1-1504); test: cryo-EM structure; Polζ holoenzyme incubated in a CaCl2 supplemented buffer with palindromic DNA (1.5 molar excess) with an A:C mismatch at the primer terminus, 1 mM dCTP; nominal resolution 3.05 Å; details: both partners purified
T2 construct: Rev3, Saccharomyces cerevisiae, catalytic subunit of Polζ, full-length (residues 1-1,504); also called catalytic Rev3; source: expressed in yeast from plasmids pBJ1462 and pBJ1524, purified as the Polζ holoenzyme

[3] = target: B3; test: as above; details: both partners purified
[4] = target: B2; test: as above; details: both partners purified
Rev3 (Polζ catalytic …) = target: Rev3 (Polζ catalytic subunit);Rev7;Pol31;Pol32 (Saccharomyces cerevisiae;Saccharomyces …, UniProt P14284;P38927;P46957;P47110 1-1504;1-245;1-487;1-350, |||); test: cryo-EM structure (3.05 Å); 1 mM dCTP, CaCl2; metal ion B; CaCl2-supplemented buffer, DNA in 1.5 molar excess, 1 mM dCTP; salt, pH and temperature not given; details: protein: recombinant;recombinant;recombinant;recombinant; tags: ;;;; copies: 1;2;1;1; self-annealed palindrome, 2 copies of one strand; 5' overhang 5 nt (TAATG, templating G); A6:C30 mismatch at primer terminus; central A:A
Sequence of Rev3 (Polζ catalytic subunit);Rev7;Pol31;Pol32 (P14284 whole entry, one chain of several): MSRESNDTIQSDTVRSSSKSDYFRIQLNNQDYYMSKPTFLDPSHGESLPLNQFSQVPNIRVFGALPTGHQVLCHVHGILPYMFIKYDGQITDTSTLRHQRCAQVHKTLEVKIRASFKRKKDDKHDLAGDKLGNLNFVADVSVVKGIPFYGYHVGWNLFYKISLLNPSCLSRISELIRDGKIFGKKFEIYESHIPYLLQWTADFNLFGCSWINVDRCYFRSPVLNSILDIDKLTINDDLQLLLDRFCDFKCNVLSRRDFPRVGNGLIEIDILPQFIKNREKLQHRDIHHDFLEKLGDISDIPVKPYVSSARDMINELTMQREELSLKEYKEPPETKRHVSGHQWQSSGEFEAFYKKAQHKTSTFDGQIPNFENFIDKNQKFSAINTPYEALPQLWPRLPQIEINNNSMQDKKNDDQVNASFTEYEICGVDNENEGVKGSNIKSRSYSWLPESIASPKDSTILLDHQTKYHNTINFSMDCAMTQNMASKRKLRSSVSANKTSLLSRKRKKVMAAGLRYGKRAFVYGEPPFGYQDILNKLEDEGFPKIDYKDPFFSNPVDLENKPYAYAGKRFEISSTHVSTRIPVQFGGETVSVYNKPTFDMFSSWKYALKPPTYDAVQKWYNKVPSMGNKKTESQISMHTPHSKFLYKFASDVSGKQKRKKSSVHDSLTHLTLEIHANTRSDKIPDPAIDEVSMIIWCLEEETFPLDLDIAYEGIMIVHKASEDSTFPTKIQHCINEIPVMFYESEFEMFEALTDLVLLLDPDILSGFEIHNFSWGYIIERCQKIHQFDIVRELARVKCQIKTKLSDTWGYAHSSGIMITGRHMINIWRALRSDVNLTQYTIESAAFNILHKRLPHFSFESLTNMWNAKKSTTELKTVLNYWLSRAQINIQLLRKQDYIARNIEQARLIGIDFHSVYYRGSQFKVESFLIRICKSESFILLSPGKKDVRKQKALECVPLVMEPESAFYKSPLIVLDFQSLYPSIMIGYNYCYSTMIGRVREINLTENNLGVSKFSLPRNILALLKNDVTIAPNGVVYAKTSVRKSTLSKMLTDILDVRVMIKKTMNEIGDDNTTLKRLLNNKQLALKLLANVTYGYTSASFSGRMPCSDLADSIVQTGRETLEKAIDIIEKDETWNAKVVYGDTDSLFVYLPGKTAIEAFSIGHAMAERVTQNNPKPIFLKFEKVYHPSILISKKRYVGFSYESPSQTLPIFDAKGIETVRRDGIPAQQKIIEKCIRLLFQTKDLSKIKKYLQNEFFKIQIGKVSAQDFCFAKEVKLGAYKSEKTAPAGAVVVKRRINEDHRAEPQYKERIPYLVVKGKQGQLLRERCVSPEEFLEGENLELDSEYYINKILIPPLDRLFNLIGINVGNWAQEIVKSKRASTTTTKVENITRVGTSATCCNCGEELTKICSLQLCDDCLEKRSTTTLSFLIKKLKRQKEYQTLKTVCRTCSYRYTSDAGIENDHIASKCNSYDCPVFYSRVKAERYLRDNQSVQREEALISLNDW

T2 sequence (P14284 whole entry, the tested form may be a part): as the sequence (P14284 whole entry, one chain of several) above
T1 sequence (P14284 whole entry, one chain of several): as above

With `Nc1ccn([C@H]2C[C@H](O)[C@@H](COP(=O)(O)OP(=O)(O)OP(=O)(O)O)O2)c(=O)n1` [dCTP] the “cryo-EM structure, 3.05 Å” value [1] was “Rev3 is observed with the incoming nucleotide dCTP (position P0) opposite the templating base G”.

B1: Rev7, accessory subunit of DNA polymerase ζ (Polζ) (natural protein, Saccharomyces cerevisiae, UniProt P38927 1-245, looked up)
chain: MNRWVEKWLRVYLKCYINLILFYRNVYPPQSFDYTTYQSFNLPQFVPINRHPALIDYIEELILDVLSKLTHVYRFSICIINKKNDLCIEKYVLDFSELQHVDKDDQIITETEVFDEFRSSLNSLIMHLEKLPKVNDDTITFEAVINAIELELGHKLDRNRRVDSLEEKAEIERDSNWVKCQEDENLPDNNGFQPPKIKLTSLVGSDVGPLIIHQFSEKLISGDDKILNGVYSQYEEGESIFGSLF
notes: Rev7, Saccharomyces cerevisiae, accessory subunit of Polζ, full-length (residues 1-245); Two copies (Rev7A and Rev7B) stand in the pentameric holoenzyme; also called Rev7B; source: expressed in yeast from plasmids pBJ1462 and pBJ1524, purified as the Polζ holoenzyme
B1: binds [2]; binds [3].

B2: binds [2].

B3: binds [4].

B4: A:C mismatched palindromic template-primer (dsDNA)
DNA 1: TAATGATAGGGGAGGGAATCCCTCCCCTAC
DNA 2: TAATGATAGGGGAGGGAATCCCTCCCCTAC
modifications: 3'-dideoxy C terminus
B4: binds (Rev3 (Polζ catalytic …)).
